In patent publication US20250326825A1, “ANTI-FABP4 ANTIBODIES AND THEIR USES” (THE HONG KONG POLYTECHNIC UNIVERSITY, priority 2024, published 2025):

What was measured:
[1] = system: hepatocellular carcinoma cells; assay: Sphere formation / limiting dilution sphere analysis (self-renewal); assay type: cell-based, human
Method: Sphere formation assay—Three to five hundred cells of PLC/PRF/5, Huh7 and hepatocellular carcinoma organoids (HK-HCC P1 and HCC #23) were seeded to 24-well plates coated with poly (2-hydroxyethyl methacrylate) (polyHEMA, Sigma Aldrich). Cells were grown in 500 μl of either conditioned media or serum-free 0.25% methylcellulose (Sigma-Aldrich) DMEM/F12 medium supplemented with 4 μg/mL insulin (Sigma-Aldrich), B27 (Invitrogen) and recombinant human FABP4 (rhFABP4, Biovision) at a concentration of either 20 ng/ml or 100 ng/ml. The number of tumourspheres (diameter larger than 100 μm) was counted under microscope after 8 to 12 days.
Limiting dilution assay—Parental or shITGB1 PLC/PRF/5 and Huh7 cells were cultured in a 96-well plate coated with polyHEMA with 200 μl serum-free 0.25% methylcellulose DMEM/F12 medium supplemented with 4 μg/mL insulin, B27 and rhFABP4 when appropriate. Sphere formation was scored after 8 to 12 days under a phase contrast microscope. The frequency of sphere-forming cell was calculated accordingly using an extreme limiting dilution algorithm (ELDA).

[2] = limits clinical use; cited from earlier work
[3] = system: hepatocellular carcinoma cells; assay: Cancer stem cell functional assays (overall); assay type: cell-based, human; settings: hepatocellular carcinoma cells in ADCM (FIG. 9A to 9D)
Method: In summary, the methods shown herein were used to evaluate the interaction between differentiated adipocytes and HCC cells using a co-culture system. The conditioned medium of the adipocytes was profiled using Orbitrap liquid chromatography mass spectrometry. The functional role of FABP4 in the regulation of liver cancer stem cells was evaluated by various cancer stem cells functional assays. In vivo functional characterization of FABP4 was performed in Fabp4 knockout mice. Molecular pathways mediating phenotypic alterations were identified using mass spectrometry, RNA sequencing analysis, and pathway analysis. The therapeutic efficacy of monoclonal neutralising antibody against FABP4 was evaluated in two mouse models, a hepatocellular carcinoma (HCC) xenograft model and a MASLD-HCC model.

[4] = system: hepatocellular carcinoma cells; assay: Annexin-V apoptosis assay (drug resistance to doxorubicin or sorafenib); assay type: cell-based, human; settings: rhFABP4 pretreatment (FIG. 2H)
Method: Annexin-V apoptosis assay—Cells were stained by FITC-conjugated Annexin-V (BioVision) and propidium iodide (PI) (Invitrogen) in Annexin-V binding buffer (BD Biosciences) at room temperature for 30 minutes. Apoptosis percentage was determined using BD Accuri C6 flow cytometer and FACSDiva software (BD Biosciences).

[5] = system: PI3K/AKT/β-catenin signalling; assay: Western blot of AKT/GSK3β/β-catenin signalling in hepatocellular carcinoma cells; assay type: cell-based, human; settings: ADCM or rhFABP4 treatment (FIG. 5D)
From the text: Western blot analysis—Whole cell lysates were extracted using either NETN buffer supplemented with protease inhibitor cocktail or direct lysis. Protein lysate was separated by SDS-polyacrylamide gel electrophoresis (SDS-PAGE) and transferred to polyvinylidene difluoride membrane (Millipore) for western blot analyses. Primary antibodies FABP4[EPR3579](1:1000, ab92501, Abcam), pAKT(Ser473) (D9E), pGSK3β(Ser9) (D3A4), AKT and β-catenin (D10A8) (1:1000, #4060S, #9322S, #9272S & #8480S, Cell Signaling Technology), GSK3β(clone 7) (1:1000, #610202, clone 7, BD Transduction Laboratories), DDK (OTI4C5) (1:1000,TA50011-100, Origene), ITGB1 (1:1000, 12594-1-AP, Proteintech) and β-ACTIN (AC-74) (1:5000, #A5316, Sigma Aldrich) were incubated at 4° C. overnight. After washing, the membrane was incubated with horseradish peroxidase-conjugated anti-mouse or rabbit antibody (GE HealthCare). The signals were visualized using the enhanced chemiluminescence method. Blot images were quantified by densitometry using ImageJ software. The protein expression was normalized to β-actin and expressed as fold change relative to respective controls.

Huh7 cells = assay: In vivo tumorigenicity assay (limiting dilution), subcutaneous engraftment of pretreated Huh7 cells; set-up: species or system mouse xenograft; settings: Huh7 pretreated with rhFABP4 at 100 ng/ml, NOD/SCID mice
Method: (§1) In vivo tumorigenicity assay—In vivo evaluation of tumorigenicity was performed with either male non-obese diabetic/severe combined immunodeficient (NOD/SCID) or NOD/SCID gamma mice, 4 to 6 weeks of age, by induction of tumour xenografts. Cells were suspended in 1:1 culture medium and BD Matrigel Matrix (BD Biosciences) and subcutaneously injected into the flanks of the mice, which were kept under observation. Briefly, each mouse received two injections of cells in both flanks. The cells were pretreated with either rhFABP4 (100 ng/ml) or ADCM for 24 hours, and, with their control group, were injected into NOD/SCID and NOD/SCID gamma mice, respectively. Tumours were harvested at the end of the experiment for documentation. Tumour-initiating cell frequency was calculated using Extreme Limiting Dilution Analysis (ELDA) software. No specific randomization method was used. Sample size of animals was chosen based on p-values. […] Mice were sacrificed if the percentage of body weight loss is greater than 20% including the tumour mass.

[6] = system: hepatocellular carcinoma patient-derived organoids (HK-HCC P1 and HCC #23); assay: Hepatocellular carcinoma patient-derived organoid assays; assay type: cell-based, human
From the text: Hepatocellular carcinoma patient-derived organoids and culture conditions—Hepatocellular carcinoma tissue was obtained from patients undergoing hepatectomy at Queen Mary Hospital, Hong Kong. Samples were collected from patients who had not received any previous local or systemic treatment prior to operation. For organoid cultures, cells were isolated and cultured according to protocol. Hepatocellular carcinoma patient-derived organoids labelled HCC #23 was gift from Dr. Meritxell Huch of The Gudon Institute at the University of Cambridge.
Cell viability assay—Cell viability of organoid cultures treated with specified concentrations of rhFABP4 for 6 days was evaluated using CellTiter-Glo® Luminescent Cell Viability Assay (Promega) according to manufacturer's protocol.
Sphere formation assay—Three to five hundred cells of PLC/PRF/5, Huh7 and hepatocellular carcinoma organoids (HK-HCC P1 and HCC #23) were seeded to 24-well plates coated with poly (2-hydroxyethyl methacrylate) (polyHEMA, Sigma Aldrich). […] The number of tumourspheres (diameter larger than 100 μm) was counted under microscope after 8 to 12 days.
Migration and invasion assays—Migration assays were performed using polycarbonate membrane transwell inserts with pore size of 8 μm (Millipore). […] Photographs of five randomly selected fields of the fixed cells were captured and the cells were counted using ImageJ.

β-catenin = assay: Beta-catenin TCF binding luciferase (TOP/FOP) reporter assay; assay type: cell-based, human; settings: ADCM or rhFABP4 for 24 hours (FIG. 5E)
From the text: Beta-catenin TCF binding luciferase reporter assay—β-catenin activity was examined using luciferase reporter assay of TCF/LEF-dependent transcription (TOP/FOPFLASH reporter assay). Either firefly luciferase pSuper8XTOPflash or pSuper8XFOPflash constructs (gifts from Dr. Moon R, University of Washington, USA), together with Renilla luciferase construct pRL-CMV (Promega, Madison, WI, USA) for normalization of transfection efficiency, were transfected using Lipofectamine 2000. Luciferase activities were assayed using Dual-Luciferase Reporter Assay System (Promega) according to manufacturer's protocol.

PLC/PRF/5 cells = assay: In vivo tumorigenicity assay (limiting dilution), subcutaneous engraftment of pretreated PLC/PRF/5 cells; set-up: species or system mouse (mouse (mouse (human cell xenograft) cell xenograft) cell xenograft); settings: PLC/PRF/5 pretreated with rhFABP4 at 100 ng/ml, NOD/SCID mice
Method: as §1

ITGB1 = biological target: T1, ITGB1 (Homo sapiens, UniProt P05556); assay: Mass spectrometry / coimmunoprecipitation of FABP4 binding partner; settings: biotin-labelled rhFABP4, Huh7 membrane surface
T1 construct: endogenous in cells; host or cells: Huh7
Method: Biotinylation of rhFABP4 and Streptavidin capturing of membrane protein—rhFABP4 was biotin-labelled and crosslinked with sulfosuccinimidyl-2-[6-(biotinamido)-2-(p-azidobenzamido) hyxanoamido]ethyl-1,3′-ithiopropionate) (Sulfo-SBED, A39260, Thermo Fisher Scientific) according to manufacturer's instructions. In brief, 50 μg of rhFABP4 (#4504, BioVision) was incubated with 1 mg of dissolved Sulfo-SBED at room temperature for 30 minutes. The reaction mixture was desalted using Amicon® Ultra-0.5 centrifugal filter device with a 3,000 Molecular Weight Cut Off (Millipore, Germany). The desalted biotinylated rhFABP4 was incubated in PBS with adherent Huh7 cells at room temperature for 10 minutes. The cell surface proteins interacting with biotinylated rhFAPB4 was captured by the photoreactive aryl azide moiety using long wave-UV at 360 nm. The labelled proteins were isolated by NeutrAvidin Agarose slurry and reduced using Pierce™ Cell Surface Protein Biotinylation and Isolation Kit (#A44390, Thermo Fisher Scientific). The interacting rhFABP4-surface protein complex was isolated, and the disulfide bond reduced, resulting in the biotin label being transferred to the interacting proteins. […]

[7] = system: hepatocellular carcinoma cells; assay: Migration and invasion transwell assays; assay type: cell-based, human; settings: rhFABP4 (FIG. 2G)
Method: Migration and invasion assays—Migration assays were performed using polycarbonate membrane transwell inserts with pore size of 8 μm (Millipore). Invasion assays were performed using self-coated Matrigel (BD Biosciences) transwell inserts. Hepatocellular carcinoma cell lines (PLC/PRF/5 and Huh7) or patient-derived organoids (HK-HCC P1 and HCC #23) in serum-free medium were seeded in upper chamber, while the lower chamber was supplemented with either ADCM or 100 ng/mL rhFABP4 in serum-free medium as a chemoattractant. Serum-free DMEM was used as a negative control. Cells were incubated in humidified incubation at 37° C. for 48 hours. The transwell membranes were fixed with methanol and stained with 1% crystal violet. The membranes were cleaned and air-dried. Photographs of five randomly selected fields of the fixed cells were captured and the cells were counted using ImageJ.

[8] = system: hepatocellular carcinoma cells; assay: Flow cytometric analysis of liver CSC markers; assay type: cell-based, human; settings: rhFABP4 20 ng/ml and 100 ng/ml (FIG. 2F)
Method: Flow cytometric analysis—Cells were stained by Phycoerythrin (PE)-conjugated CD47 and CD90 antibodies (#536046 & #555596, BD Biosciences) in PBS with 2% FBS at 4° C. for 30 to 60 minutes. Isotype-matched mouse immunoglobulins served as controls. Samples were analysed using BD Accuri C6 flow cytometer and FACSDiva software (BD Biosciences).

T1 sequence (P05556 21-798): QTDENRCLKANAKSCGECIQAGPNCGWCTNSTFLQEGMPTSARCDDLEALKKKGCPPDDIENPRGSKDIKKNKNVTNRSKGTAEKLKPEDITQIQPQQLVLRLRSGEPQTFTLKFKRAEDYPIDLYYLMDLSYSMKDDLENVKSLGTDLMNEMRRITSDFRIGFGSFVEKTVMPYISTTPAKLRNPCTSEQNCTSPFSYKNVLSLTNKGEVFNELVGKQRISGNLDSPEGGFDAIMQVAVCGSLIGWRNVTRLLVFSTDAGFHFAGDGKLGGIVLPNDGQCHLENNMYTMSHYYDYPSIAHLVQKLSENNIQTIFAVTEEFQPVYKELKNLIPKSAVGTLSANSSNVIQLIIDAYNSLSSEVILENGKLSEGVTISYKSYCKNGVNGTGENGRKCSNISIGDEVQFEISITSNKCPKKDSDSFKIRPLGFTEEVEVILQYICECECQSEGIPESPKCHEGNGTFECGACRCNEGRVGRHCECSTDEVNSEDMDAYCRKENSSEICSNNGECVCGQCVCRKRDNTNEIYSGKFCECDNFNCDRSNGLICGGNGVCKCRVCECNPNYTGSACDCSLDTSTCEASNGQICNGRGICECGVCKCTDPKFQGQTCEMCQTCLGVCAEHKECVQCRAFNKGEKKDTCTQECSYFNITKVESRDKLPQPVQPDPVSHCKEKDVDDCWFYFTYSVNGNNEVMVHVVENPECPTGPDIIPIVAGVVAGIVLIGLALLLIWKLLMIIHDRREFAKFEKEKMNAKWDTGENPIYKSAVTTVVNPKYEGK

Molecule: CCc1c(-c2ccccc2)c(-c2ccccc2)nn1-c1ccccc1-c1cccc(OCC(=O)O)c1 [BMS-309403]
- Enhancing self-renewal ability of ADCM (tumoursphere formation) ([1]; PLC/PRF/5, ADCM, inhibitor at 1 μM): suppressed
- Side effects [2]: acute cardiac depressant effect
- Effects of ADCM on liver cancer stem cell properties [3]: attenuation

B1: rhFABP4: recombinant human FABP4 protein (Biovision) (protein, UniProt P15090 2-132, looked up)
Fatty acid-binding protein, …: CDAFVGTWKLVSSENFDDYMKEVGVGFATRKVAGMAKPNMIISVNGDVITIKSESTFKNTEISFILGQEFDEVTADDRKVKSTITLDGGVLVHVQKWDGKSTTIKRKREDDKLVVECVMKGVTSTRVYERA
- Self-renewal (sphere formation) ([1]; rhFABP4 20 ng/ml and 100 ng/ml (FIG. 2D)): promote
- Resistance to doxorubicin and sorafenib treatment [4]: promote
- AKT phosphorylation at Ser473 [5]: activated
- GSK3β phosphorylation at Ser9 [5]: inactivation
- Total β-catenin [5]: accumulation
- Estimated CSC frequency (Huh7 cells; extreme limiting dilution): 1/3404
- Tumor incidence rate, 1 × 10^3 cells (Huh7 cells; subcutaneous, 1 × 10^3 cells): 3/5
- Tumor incidence rate, 1 × 10^4 cells (Huh7 cells; subcutaneous, 1 × 10^4 cells): 4/5
- Tumor incidence rate, 5 × 10^3 cells (Huh7 cells; subcutaneous, 5 × 10^3 cells): 4/5
- Self-renewal of patient-derived organoids ([6]; rhFABP4 (FIG. 4B)): confer self-renewal
- Size of organoids and their proliferative rate ([6]; rhFABP4, 6 days, CellTiter-Glo (FIG. 4C)): increase
- Transactivation of β-catenin (TOP/FOP reporter) (β-catenin): enhanced
- Estimated CSC frequency (PLC/PRF/5 cells; extreme limiting dilution): 1/2108
- Tumor incidence rate, 1 × 10^3 cells (PLC/PRF/5 cells; subcutaneous, 1 × 10^3 cells): 3/5
- Tumor incidence rate, 5 × 10^3 cells (PLC/PRF/5 cells; subcutaneous, 5 × 10^3 cells): 4/5
- Interaction with membrane receptor ITGB1 (ITGB1): directly interacts
- Cell migration and invasion [7]: promote
- Expression of liver CSC markers [8]: promote
